Substitutions are numbered along the chain they refer to.
T1: human GIP receptor (human, UniProt P48546 22-466)
T1 sequence (looked up): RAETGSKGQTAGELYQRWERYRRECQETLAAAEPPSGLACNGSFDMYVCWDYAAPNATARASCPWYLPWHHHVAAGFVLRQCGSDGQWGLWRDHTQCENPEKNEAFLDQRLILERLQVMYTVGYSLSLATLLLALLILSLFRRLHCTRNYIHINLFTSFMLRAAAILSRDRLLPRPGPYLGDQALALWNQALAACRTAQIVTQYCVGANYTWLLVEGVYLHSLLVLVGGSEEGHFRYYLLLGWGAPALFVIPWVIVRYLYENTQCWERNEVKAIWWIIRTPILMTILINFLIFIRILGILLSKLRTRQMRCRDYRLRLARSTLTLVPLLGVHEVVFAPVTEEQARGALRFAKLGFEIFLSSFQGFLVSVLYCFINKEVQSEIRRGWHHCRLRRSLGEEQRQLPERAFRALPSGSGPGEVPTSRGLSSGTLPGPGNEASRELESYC

B1: Y-Aib-EGT-αMeF(2F)-TSD-4Pal-αMeS-I-αMeL-LD-Orn-IAQ-Aib-K((2-[2-(2-Amino-ethoxy)-ethoxy]-acetyl)2-(γ-Glu)-CO-(CH2)12-CO2H)FI-(D-Glu)-αMeY-LIK((2-[2-(2-Amino-etho … (peptide)
peptide: YXEGTXTSDXXIXLDXIAQXKFIXXLIKGGPSSGAPPPS
modifications: Aib2, αMeF(2F)6, 4Pal10, αMeS11, αMeL13, Orn16, Aib20, D-Glu24, αMeY25; acylated K21, K28 (groups as in name); C-terminal amide
B2: Y-Aib-EGT-αMeF(2F)-TSD-4Pal-Ac5c-I-αMeL-LD-Orn-K((2-[2-(2-Amino-ethoxy)-ethoxy]-acetyl)2-(γ-Glu)-CO-(CH2)12-CO2H)AQ-Aib-EFI-(D-Glu)-αMeY-LIEGGK((2-[2-(2-Amino-e … (peptide)
peptide: B1 peptide with I17K, K21E, K28E, P31K
modifications: Aib2, αMeF(2F)6, 4Pal10, Ac5c11, αMeL13, Orn16, Aib20, D-Glu24, αMeY25; acylated K17, K31 (groups as in name); C-terminal amide
B3: Y-Aib-EGT-αMeF(2F)-TSD-4Pal-αMeS-I-αMeL-LD-Orn-IAQ-Aib-K((2-[2-(2-Amino-ethoxy)-ethoxy]-acetyl)2-(γ-Glu)-CO-(CH2)12-CO2H)FIK((2-[2-(2-Amino-ethoxy)-ethoxy]-acet … (peptide)
peptide: B1 peptide with X24K, K28E
modifications: Aib2, αMeF(2F)6, 4Pal10, αMeS11, αMeL13, Orn16, Aib20, αMeY25; acylated K21, K24 (groups as in name); C-terminal amide
B4: Y-Aib-EGT-αMeF(2F)-TSD-4Pal-αMeS-I-αMeL-LD-Orn-K((2-[2-(2-Amino-ethoxy)-ethoxy]-acetyl)2-(γ-Glu)-CO-(CH2)12-CO2H)AQ-Aib-EFI-(D-Glu)-αMeY-LIEGGK((2-[2-(2-Amino-e … (peptide)
peptide: B1 peptide with I17K, K21E, K28E, P31K
modifications: Aib2, αMeF(2F)6, 4Pal10, αMeS11, αMeL13, Orn16, Aib20, D-Glu24, αMeY25; acylated K17, K31 (groups as in name); C-terminal amide
B5: Y-Aib-EGT-αMeF(2F)-TSD-4Pal-αMeS-I-αMeL-LD-Orn-IAQ-Aib-EFIK((2-[2-(2-Amino-ethoxy)-ethoxy]-acetyl)2-(γ-Glu)-CO-(CH2)12-CO2H)-αMeY-LIK((2-[2-(2-Amino-ethoxy)-eth … (peptide)
peptide: B1 peptide with K21E, X24K
modifications: Aib2, αMeF(2F)6, 4Pal10, αMeS11, αMeL13, Orn16, Aib20, αMeY25; acylated K24, K28 (groups as in name); C-terminal amide

What was measured:
Assay in all cases: cell-based or functional assay
[1] = target: human GLP-1 receptor (human, UniProt P43220 24-463)
[2] = target: human glucagon receptor (human, UniProt P47871 26-477)
[3] = target: T1, human GIP receptor

Binder | cAMP EC50 (1.0% HSA) [1] [nM] | cAMP Emax (1.0% HSA) [1] [%] | cAMP EC50 (1.0% HSA) [2] [µM] | cAMP EC50 (1.0% HSA) [3] [nM] | cAMP Emax (1.0% HSA) [3] [%]
B1 | 87.8 | 118 | > 9.95 | 7.84 | 62.7
B2 | 94.2 | 99 | > 9.95 | 2.16 | 64.5
B3 | 14.8 | 107 | > 9.95 | 0.925 | 91.3
B4 | 40.3 | 102 | > 9.95 | 4.38 | 95.6
B5 | 32.3 | 117 | > 9.95 | 5.31 | 63.4
